Measurements: the supplement of paper PMC10567573

B1: SERPINB5 (parent)
chain: FPESETKECPFRVNKVCGAACSSK

Variants of: B1
Assay: protein stability index of a GFP-peptide fusion (GPS, HEK-293T) (PSI 1-6); higher = more stable
Settings: c terminus: a fixed tail appended
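Further: lentivirally expressed fusions sorted by FACS into six bins by GFP to DsRed ratio, PSI derived from sequencing read proportions per bin multiplied by bin number.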

Q: Which protein stability index does the source give for FPESETKECPIRVNKVCGAACSSK [F11I] here?
A: 4.74

Q: Which protein stability index does the source give for FPESETKECPVRVNKVCGAACSSK [F11V] here?
A: 4.25

Q: For FPESETKECPDRVNKVCGAACSSK [F11D], which protein stability index is on record?
A: 5.06

Q: Which protein stability index does the source give for FPESETKECPLRVNKVCGAACSSK [F11L] here?
A: 4.31

Q: For FPESETKECPFRVNKVCEAACSSK [G18E], which protein stability index is on record?
A: 2.6

Q: With FPESETKECPFRVNKVCDAACSSK [G18D] as the variant, how does the protein stability index read?
A: 2.89

Q: With FPESETKECPFRVNKVCHAACSSK [G18H] as the variant, how does the protein stability index read?
A: 2.59

Q: Which protein stability index does the source give for FPESETKECPFRVNKVCKAACSSK [G18K] here?
A: 3.24

Q: For FPESETKECPFRVNKVCTAACSSK [G18T], which protein stability index is on record?
A: 2.35

Q: With FPESETKECPFRVNKVCWAACSSK [G18W] as the variant, how does the protein stability index read?
A: 3.39

Q: For FPESETKECPFRVNKVCGAQCSSK [A20Q], which protein stability index is on record?
A: 2.09

Q: For FPESETKECPFRVNKVCGAVCSSK [A20V], which protein stability index is on record?
A: 2.67

Q: With FPESETKECPFRVNKVCGAFCSSK [A20F] as the variant, how does the protein stability index read?
A: 1.95

Q: For FPESETKECPFRVNKVCGAGCSSK [A20G], which protein stability index is on record?
A: 3.22

Q: With FPESETKECPFRVNKVCGAHCSSK [A20H] as the variant, how does the protein stability index read?
A: 2.58

Q: Which protein stability index does the source give for FPESETKECPFRVNKVCGAECSSK [A20E] here?
A: 2.84

Q: For FPESETKECPFRVNKVCGAICSSK [A20I], which protein stability index is on record?
A: 2.32

Q: With FPESETKECPFRVNKVCGAACSQK [S23Q] as the variant, how does the protein stability index read?
A: 2.35

Q: With FPESETKECPFRVNKVCGAACSEK [S23E] as the variant, how does the protein stability index read?
A: 3.16

Q: Which protein stability index does the source give for FPESETKECPFRVNKVCGAACSAK [S23A] here?
A: 2.41

Q: For FPESETKECPFRVNKVCGAACSHK [S23H], which protein stability index is on record?
A: 3.33

Q: For FPESETKECPFRVNKVCGAACSDK [S23D], which protein stability index is on record?
A: 2.78

Q: Which protein stability index does the source give for FPESETKECPFRVNKVCGAACSPK [S23P] here?
A: 2.39

Q: Which protein stability index does the source give for FPESETKECPFRVNKVCGAACSTK [S23T] here?
A: 2.19

Q: For FPESETKECPFRVNKVCGAACSWK [S23W], which protein stability index is on record?
A: 1.93

Q: With FPESETKECPFRVNKVCGAACSVK [S23V] as the variant, how does the protein stability index read?
A: 2.42

Q: Which protein stability index does the source give for FPESETKECPFRVNKVCGAACSCK [S23C] here?
A: 2.66

Q: Which protein stability index does the source give for FPESEDKECPFRVNKVCGAACSSK [T6D] here?
A: 2.47

Q: Which protein stability index does the source give for FPESEQKECPFRVNKVCGAACSSK [T6Q] here?
A: 2.95

Q: For FPESEAKECPFRVNKVCGAACSSK [T6A], which protein stability index is on record?
A: 2.68

Q: With FPESEYKECPFRVNKVCGAACSSK [T6Y] as the variant, how does the protein stability index read?
A: 2.28

Q: For FPESEGKECPFRVNKVCGAACSSK [T6G], which protein stability index is on record?
A: 2.09

Q: Which protein stability index does the source give for FPESEKKECPFRVNKVCGAACSSK [T6K] here?
A: 2.28

Q: With FPESERKECPFRVNKVCGAACSSK [T6R] as the variant, how does the protein stability index read?
A: 2.63

Q: With FPESESKECPFRVNKVCGAACSSK [T6S] as the variant, how does the protein stability index read?
A: 2.36

Q: For FPESENKECPFRVNKVCGAACSSK [T6N], which protein stability index is on record?
A: 2.2

Q: With FPESETKECPFRVNEVCGAACSSK [K15E] as the variant, how does the protein stability index read?
A: 2.83

Q: Which protein stability index does the source give for FPESETKECPFRVNDVCGAACSSK [K15D] here?
A: 3.01

Q: Which protein stability index does the source give for FPESETKECPFRVNVVCGAACSSK [K15V] here?
A: 2.1

Q: For FPESETKECPFRVNSVCGAACSSK [K15S], which protein stability index is on record?
A: 2.32

Q: Which protein stability index does the source give for FPESETKECPFRVNFVCGAACSSK [K15F] here?
A: 2.12

Q: Which protein stability index does the source give for FPESETKECPFRVNLVCGAACSSK [K15L] here?
A: 2.61

Q: For FPESETKECPFRVNAVCGAACSSK [K15A], which protein stability index is on record?
A: 3.17

Q: Which protein stability index does the source give for FPESETKECPFRVNTVCGAACSSK [K15T] here?
A: 2.48

Q: For FDESETKECPFRVNKVCGAACSSK [P2D], which protein stability index is on record?
A: 4.73

Q: Which protein stability index does the source give for FTESETKECPFRVNKVCGAACSSK [P2T] here?
A: 2.26

Q: For FHESETKECPFRVNKVCGAACSSK [P2H], which protein stability index is on record?
A: 2.19

Q: With FYESETKECPFRVNKVCGAACSSK [P2Y] as the variant, how does the protein stability index read?
A: 3.67

Q: For FIESETKECPFRVNKVCGAACSSK [P2I], which protein stability index is on record?
A: 2.07

Q: With FGESETKECPFRVNKVCGAACSSK [P2G] as the variant, how does the protein stability index read?
A: 3.59

Q: With FSESETKECPFRVNKVCGAACSSK [P2S] as the variant, how does the protein stability index read?
A: 3.66

Q: For FQESETKECPFRVNKVCGAACSSK [P2Q], which protein stability index is on record?
A: 3.73

Q: With FAESETKECPFRVNKVCGAACSSK [P2A] as the variant, how does the protein stability index read?
A: 2.02

Q: For FPESETKECPFRVNKVCGTACSSK [A19T], which protein stability index is on record?
A: 2.62

Q: With FPESETKECPFRVNKVCGEACSSK [A19E] as the variant, how does the protein stability index read?
A: 2.5

Q: For FPESETKECPFRVNKVCGDACSSK [A19D], which protein stability index is on record?
A: 3.03

Q: Which protein stability index does the source give for FPESETKECPFRVNKVCGHACSSK [A19H] here?
A: 2.51

Q: Which protein stability index does the source give for FPESETKECPFRVNKVCGSACSSK [A19S] here?
A: 2.92

Q: With FPESETKECPFRVNKVCGMACSSK [A19M] as the variant, how does the protein stability index read?
A: 2.36

Q: For FPESETKECPFRVNKVCGVACSSK [A19V], which protein stability index is on record?
A: 2.41

Q: With FPESETKECPFRVNKVCGQACSSK [A19Q] as the variant, how does the protein stability index read?
A: 2.7

Q: With PPESETKECPFRVNKVCGAACSSK [F1P] as the variant, how does the protein stability index read?
A: 4.52

Q: For CPESETKECPFRVNKVCGAACSSK [F1C], which protein stability index is on record?
A: 4.63

Q: With SPESETKECPFRVNKVCGAACSSK [F1S] as the variant, how does the protein stability index read?
A: 5.08

Q: For EPESETKECPFRVNKVCGAACSSK [F1E], which protein stability index is on record?
A: 5.05

Q: Which protein stability index does the source give for QPESETKECPFRVNKVCGAACSSK [F1Q] here?
A: 4.5

Q: With APESETKECPFRVNKVCGAACSSK [F1A] as the variant, how does the protein stability index read?
A: 4.46

Q: For VPESETKECPFRVNKVCGAACSSK [F1V], which protein stability index is on record?
A: 4.5

Q: With WPESETKECPFRVNKVCGAACSSK [F1W] as the variant, how does the protein stability index read?
A: 3.85

Q: With KPESETKECPFRVNKVCGAACSSK [F1K] as the variant, how does the protein stability index read?
A: 4.89

Q: Which protein stability index does the source give for FPESETKEFPFRVNKVCGAACSSK [C9F] here?
A: 1.81

Q: With FPESETKERPFRVNKVCGAACSSK [C9R] as the variant, how does the protein stability index read?
A: 4.34

Q: Which protein stability index does the source give for FPESETKEKPFRVNKVCGAACSSK [C9K] here?
A: 4.37

Q: Which protein stability index does the source give for FPESETKEDPFRVNKVCGAACSSK [C9D] here?
A: 3.87

Q: For FPESETKEPPFRVNKVCGAACSSK [C9P], which protein stability index is on record?
A: 4.51

Q: For FPESETKESPFRVNKVCGAACSSK [C9S], which protein stability index is on record?
A: 2.15

Q: Which protein stability index does the source give for FPESETKECPFCVNKVCGAACSSK [R12C] here?
A: 4.62

Q: With FPESETKECPFPVNKVCGAACSSK [R12P] as the variant, how does the protein stability index read?
A: 4.75

Q: With FPESETKECPFLVNKVCGAACSSK [R12L] as the variant, how does the protein stability index read?
A: 2.68

Q: With FPESETKECPFGVNKVCGAACSSK [R12G] as the variant, how does the protein stability index read?
A: 4.11

Q: With FPESETKECPFVVNKVCGAACSSK [R12V] as the variant, how does the protein stability index read?
A: 2.43

Q: Which protein stability index does the source give for FPESETKECPFTVNKVCGAACSSK [R12T] here?
A: 3.84

Q: For FPESETKECPFAVNKVCGAACSSK [R12A], which protein stability index is on record?
A: 3.76

Q: Which protein stability index does the source give for FPESETKECPFMVNKVCGAACSSK [R12M] here?
A: 2.86

Q: For FPESETKECPFRVNKVCGAACHSK [S22H], which protein stability index is on record?
A: 2.55

Q: For FPESETKECPFRVNKVCGAACLSK [S22L], which protein stability index is on record?
A: 1.93

Q: For FPESETKECPFRVNKVCGAACASK [S22A], which protein stability index is on record?
A: 3.52

Q: For FPESETKECPFRVNKVCGAACGSK [S22G], which protein stability index is on record?
A: 3.07

Q: With FPEHETKECPFRVNKVCGAACSSK [S4H] as the variant, how does the protein stability index read?
A: 2.62

Q: With FPEGETKECPFRVNKVCGAACSSK [S4G] as the variant, how does the protein stability index read?
A: 2.25

Q: With FPEYETKECPFRVNKVCGAACSSK [S4Y] as the variant, how does the protein stability index read?
A: 2.9

Q: With FPEFETKECPFRVNKVCGAACSSK [S4F] as the variant, how does the protein stability index read?
A: 2.54

Q: With FPEVETKECPFRVNKVCGAACSSK [S4V] as the variant, how does the protein stability index read?
A: 3.08

Q: For FPEMETKECPFRVNKVCGAACSSK [S4M], which protein stability index is on record?
A: 2.48
